Conditions: Escherichia coli (strain K12), pH 5.5, CD, Potassium phosphate 2 mM, KF 5 mM, reversible: yes, whole UniProt chain shown

B1: Ribonuclease HI wild type, P0A7Y4 (protein)
chain: MLKQVEIFTDGSCLGNPGPGGYGAILRYRGREKTFSAGYTRTTNNRMELMAAIVALEALKEHCEVILSTDSQYVRQGITQWIHNWKKRGWKTADKKPVKNVDLWQRLDAALGQHQIKWEWVKGHAGHPENERCDELARAAAMNPTLEDTGYQVEV
denaturant m value (25 °C, Urea): 2.1 kcal/mol/M
unfolding free energy (25 °C, Urea): 9.7 kcal/mol
Tm (Thermal): 47.8 °C

— FireProtDB (doi:10.1038/12277)
